Data: PMC2673437 (Nucleic Acids Research, 2009)
Read-outs that look alike come from different tables or passages of the source. Where no end group is shown, it is not given here. The star is where a group is joined. Biotin = O=C1N[C@H]2[C@H](CS[C@H]2CCCCC(=O)*)N1

T1: Bacillus stearothermophilus DnaB helicase (B. stearothermophilus, UniProt Q9X4C9 1-454)
T1 sequence (looked up): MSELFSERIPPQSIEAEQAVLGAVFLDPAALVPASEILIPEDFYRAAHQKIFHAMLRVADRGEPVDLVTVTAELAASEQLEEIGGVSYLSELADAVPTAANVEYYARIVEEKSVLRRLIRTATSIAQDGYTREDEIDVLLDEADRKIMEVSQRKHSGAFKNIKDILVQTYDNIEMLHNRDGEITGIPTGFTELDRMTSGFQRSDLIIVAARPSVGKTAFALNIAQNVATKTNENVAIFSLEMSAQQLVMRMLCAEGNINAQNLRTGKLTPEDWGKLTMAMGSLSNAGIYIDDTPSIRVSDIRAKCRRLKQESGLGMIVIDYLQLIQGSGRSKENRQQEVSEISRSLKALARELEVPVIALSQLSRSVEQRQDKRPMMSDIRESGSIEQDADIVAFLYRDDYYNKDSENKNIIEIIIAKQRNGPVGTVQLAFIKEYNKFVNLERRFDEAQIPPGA


How the values were obtained:
[1] = biological target: T1, Bacillus stearothermophilus DnaB …; experiment: SPR
[2] = biological target: T1, Bacillus stearothermophilus DnaB …; experiment: SPR; remark: listed apart in the source

Row | Binder | Kd [1] [µM] | stoichiometry N [1] | Kd [2] [µM]
1 | DnaI-N106 (N-terminal 106 residues of B. subtilis DnaI) (domain or fragment, UniProt P06567 1-106, looked up) MEPIGRSLQGVTGRPDFQKRLEQMKEKVMKDQDVQAFLKENEEVIDQKMIEKSLNKLYEYIEQSKNCSYCSEDENCNNLLEGYHPKLVVNGRSIDIEYYECPVKRK | 18.5 | 1.8 molecules per Bst DnaB subunit | –
2 | DnaI-N123 (residues 1-123 of B. subtilis DnaI) (domain or fragment, UniProt P06567 1-123, looked up) MEPIGRSLQGVTGRPDFQKRLEQMKEKVMKDQDVQAFLKENEEVIDQKMIEKSLNKLYEYIEQSKNCSYCSEDENCNNLLEGYHPKLVVNGRSIDIEYYECPVKRKLDQQKKQQSLMKSMYIQ | 7.3 | 1.7 molecules per Bst DnaB subunit | –
3 | Biotin-SGMEPIGRSLQGVTGRPDFQ [N-terminally biotinylated DnaI-N-peptide (DnaI residues 1-18, preceded by biotin-Ser-Gly)] | – | – | ≥ 50
4 | DnaI-N132 (residues 1-132 of B. subtilis DnaI, C-terminal His6) (domain or fragment, UniProt P06567 1-132, looked up) MEPIGRSLQGVTGRPDFQKRLEQMKEKVMKDQDVQAFLKENEEVIDQKMIEKSLNKLYEYIEQSKNCSYCSEDENCNNLLEGYHPKLVVNGRSIDIEYYECPVKRKLDQQKKQQSLMKSMYIQQDLLGATFQ | 0.65 | 0.8 molecules per Bst DnaB subunit | –
5 | MEPIGRSLQGVTGRPDFQ [unmodified peptide corresponding to residues 1-18 of DnaI] | > 140 | – | –
